Residue numbers refer to the chain shown, from its start.
B1: Benchmark (BM) BA-133-00-01 (antibody, V domains shown)
VH: QVQLQESGPGLVKPSETLSLTCTVSGGSVSSYDISWIRQPPGKGLEWIGVIWTDGGTNYNSAFMSRVTISVDTSKNQFSLKLSSVTAADTAVYYCARVYDGYPWFAYWGQGTLVTVSS
VL: DIQMTQSPSSLSASVGDRVTITCRASQGISNYLNWYQQKPGKAPKLLIYYTSSLHSGVPSRFSGSGSGTDFTLTISSLQPEDFATYYCQQYIKLPWTFGGGTKLEIKR
B2: BA-133-04-04 (antibody, V domains shown)
VH: EVQLVESGGGLVQPGGSLRLSCAASGGSVSSYDISWIRQSPSRGLEWLGVIWTDGGTNYNSAFMSRFTISRDDSKNTAYLQMNSLKTEDTAVYYCERVYDGYPWFAYWGQGTLVTVSS
VL: AIQLTQSPSSLSASVGDRVTITCRASQGISNYLNWYLQKPGQSPQLLIYYTSSLHEGVPDRFSGSGSGTDFTLKISRVEAEDVGVYYCQQYIKLPWTFGQGTKVEIK
B3: BAP133-2-02-12 (antibody, V domains shown)
VH: B2 VH
VL: AIQLTQSPSSLSASVGDRVTITCRALQGISNYLNWYQQKPGKAPKLLIYYTSSLHSGVPSRFSGSGSGTEFTLTISSLQPDDFATYYCQQYIKLPWTFGQGTKVEIK
B4: BA-133-04-02 (antibody, V domains shown)
VH: B2 VH
VL: B2 VL with S30A, E56S
B5: BAP133-2-03-03-SL (antibody, V domains shown)
VH: B2 VH
VL: B2 VL with E56S
B6: BA-133-04-01 (antibody, V domains shown)
VH: B2 VH
VL: B2 VL with G28W, E56S
B7: BA-133-04-03 (antibody, V domains shown)
VH: B2 VH
VL: B2 VL with H55F, E56S

What follows are binders tested against CD46 on Colo205 cells (human) (UniProt P15529) (assay: FACS, Colo205 cells that express CD46, pH 7.4).

Row | EC50 | Binder
1 | 0.513 µg/mL | B1
2 | 0.96 µg/mL | B2
3 | 3.63 µg/mL | B3
4 | 1.57 µg/mL | B4
5 | 1.48 µg/mL | B5
6 | 1.66 µg/mL | B6
7 | 1.47 µg/mL | B7

The binders below were run against human CD46 expressed on 293 cells (human) (UniProt P15529) (assay: FACS, 293 cells expressing human CD46, pH 6.0).

Row | EC50 | Binder
8 | 0.147 µg/mL | B1
9 | 0.241 µg/mL | B2
10 | 0.676 µg/mL | B3
11 | 0.32 µg/mL | B4
12 | 0.336 µg/mL | B5
13 | 0.324 µg/mL | B6
14 | 0.147 µg/mL | B7

The binders below were run against human CD46 expressed on 293 cells (human) (UniProt P15529) (assay: FACS, 293 cells expressing human CD46; EC50 at pH 7.4 over EC50 at pH 6.0).

Row | Ratio (pH 7.4/6.0) | Binder
15 | 2.5 | B1
16 | 2.7 | B2
17 | 3.3 | B3
18 | 3.4 | B4
19 | 2.2 | B5
20 | 4.1 | B6
21 | 2.9 | B7

The binders below were run against CD46 on Colo205 cells (human) (UniProt P15529) (assay: cell-based or functional assay).

Row | Binder | IC50 of inhibition (cytotoxicity) of Colo205 cells that express CD46, pH 6.0 (test article ADC, CellTiter-Glo) | IC50 of inhibition (cytotoxicity) of Colo205 cells that express CD46, pH 7.4 (test article ADC, CellTiter-Glo) | Ratio (pH 7.4/6.0) of the cytotoxicity IC50 on Colo205 cells
22 | B1 | 4.91 ng/mL | 11.6 ng/mL | 2.37
23 | B2 | 6.58 ng/mL | 56 ng/mL | 8.51
24 | B5 | 33.3 ng/mL | 253 ng/mL | 7.6

What follows are binders tested against human CD46 expressed on 293 cells (human) (UniProt P15529) (assay: cell-based or functional assay).

Row | Binder | IC50 of in vitro cell killing of 293 cells expressing human CD46, pH 6.0 (test article ADC, CellTiter-Glo) | IC50 of in vitro cell killing of 293 cells expressing human CD46, pH 7.4 (test article ADC, CellTiter-Glo) | Ratio (pH 7.4/6.0) of the killing IC50 on 293 cells expressing human CD46
25 | B1 | 15.8 ng/mL | 23.6 ng/mL | 1.5
26 | B2 | 13.7 ng/mL | 39.9 ng/mL | 2.91
27 | B5 | 20.6 ng/mL | 90.4 ng/mL | 4.38

These binders were tested against recombinant human CD46 antigen (human) (UniProt P15529) (assay: ELISA, coated human CD46; EC50 at pH 7.4 over EC50 at pH 6.0).

Row | ratio (ph 7.4/pH 6.0) | Binder
28 | 1.31 | B1
29 | 3.63 | B2
30 | 7.02 | B3
31 | 3.8 | B4
32 | 3.23 | B5
33 | 3.46 | B6
34 | 2.23 | B7

The binders below were run against CD46 on Colo205 cells (human) (UniProt P15529) (assay: FACS, Colo205 cells that express CD46; EC50 at pH 7.4 over EC50 at pH 6.0).

Row | Ratio (pH 7.4/6.0) | Binder
35 | 2.6 | B1
36 | 3.9 | B2
37 | 5.2 | B3
38 | 4.2 | B4
39 | 4.4 | B5
40 | 4.6 | B6
41 | 9.7 | B7

What follows are binders tested against CD46 on Colo205 cells (human) (UniProt P15529) (assay: FACS, Colo205 cells that express CD46, pH 6.0).

Row | EC50 | Binder
42 | 0.201 µg/mL | B1
43 | 0.246 µg/mL | B2
44 | 0.704 µg/mL | B3
45 | 0.371 µg/mL | B4
46 | 0.341 µg/mL | B5
47 | 0.36 µg/mL | B6
48 | 0.151 µg/mL | B7

What follows are binders tested against recombinant human CD46 antigen (human) (UniProt P15529) (assay: pH range ELISA (pH 5.5 to 7.4), coated human CD46).

Row | pH inflection point | Binder
49 | 6.7 pH | B2
50 | 6.58 pH | B3
51 | 6.64 pH | B4
52 | 6.8 pH | B5
53 | 6.61 pH | B6

Each binder was assayed against human CD46 expressed on 293 cells (human) (UniProt P15529) (assay: FACS, 293 cells expressing human CD46, pH 7.4).

Row | EC50 | Binder
54 | 0.368 µg/mL | B1
55 | 0.647 µg/mL | B2
56 | 2.23 µg/mL | B3
57 | 1.09 µg/mL | B4
58 | 0.748 µg/mL | B5
59 | 1.34 µg/mL | B6
60 | 0.427 µg/mL | B7

Source: patent US20230242662A1
